This data set deals with alpha-thrombin (Homo sapiens) (UniProt P00734+P00734). The data set can be described thus: SPR. The note with it: apparent.
Where [1] appears, read: DNA segments joined 3'-3' through glycerol phosphodiester linker L2 (both segments given 5'-3'), solution competition vs immobilized consensus …, same buffer, 25 C.
Where [2] appears, read: DNA segments joined 3'-3' by a single phosphodiester (inverted polarity; second segment given 5'-3'), solution competition vs immobilized consensus aptamer, same buffer, 25 C.

pKd: −log10 of the molar value.

Take GGTTGGTGGTTGGT [Compound 8]: the pKd under setting [1] was 7.54.
For GGTTGGTTGGTTGGTT [Compound 6], under “DNA segments joined 3'-3' through hexaethylene glycol phosphodiester linker L1 (both segments given 5'-3'), solution competition vs immobilized consensus aptamer, same buffer, 25 C”, the pKd is 8.00.
Take “GGTTGGGGTTGG [Compound 11 (uni-directional)]”: the pKd (hexaethylene glycol phosphodiester linker L1 between 3' end of first and 5' end of second segment (normal polarity), solution competition vs immobilized consensus aptamer, same buffer, 25 C) was 7.54.
Consider TGGTTGGTGGTTGG [Compound 7], for which the pKd (DNA segments joined 5'-5' through hexaethylene glycol phosphodiester linker L1 (both segments given 5'-3'), solution competition vs immobilized consensus aptamer, same buffer, 25 C) is 7.64.
Regarding GGTTGGTTGGTTGGTT [Compound 2], under setting [2], the pKd was 6.51.
Regarding GGTTGGTTGGGTTGGTT [Compound 3], the negative logarithm of the Kd (pKd) under setting [2] was 7.96.
Still for that read-out and setting: in the case of GGTTGGTGGGTTGGT [Compound 1] it was 6.65.
Regarding GGTTGGTGGTTGGT [Compound 5], where the note is “DNA segments joined 3'-3' through hexaethylene glycol phosphodiester linker L1 (both segments given 5'-3'), solution competition vs immobilized consensus aptamer, 80 nM thrombin, 20 mM Tris-acetate, 140 mM NaCl, 5 mM KCl, 1 mM CaCl2, 1 mM MgCl2, pH 7.4 …”, the negative logarithm of the Kd (pKd) is 8.05.
Regarding TTGGTTGGTTGGTTGG [Compound 4], the pKd (DNA segments joined 5'-5' by a single phosphodiester (inverted polarity; both segments given 5'-3'), solution competition vs immobilized consensus aptamer, same buffer, 25 C) was 7.60.
Take GGTTGGTTGGTTGGTT [Compound 9]: the negative-log Kd (pKd) under setting [1] is 7.72.

(Values after patent publication US5668265.)
